For experiment [1], the target named is T1, mouse TIGIT on primary murine Tregs (mouse, UniProt P86176 29-249).
T1 construct: whole, on cells; also called Mouse Tregs
T1 sequence (looked up): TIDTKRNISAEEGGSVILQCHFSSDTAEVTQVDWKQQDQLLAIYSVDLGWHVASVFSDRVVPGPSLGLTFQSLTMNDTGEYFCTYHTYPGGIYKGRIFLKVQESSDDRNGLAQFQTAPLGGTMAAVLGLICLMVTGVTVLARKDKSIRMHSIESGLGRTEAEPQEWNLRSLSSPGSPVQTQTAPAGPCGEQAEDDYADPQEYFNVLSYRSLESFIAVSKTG
As to the kind of experiment: flow cytometry on primary murine Tregs, average. In general terms: In flow cytometry, cells or beads pass a laser one at a time.

Experiment [2] addresses T2, human TIGIT on the cell surface (human, UniProt Q495A1 22-244).
T2 construct: Expressed on engineered Jurkat cells or naturally on human primary CD8+ T cells (the cells are named under assay); also called Human TIGIT Jurkat; human TIGIT expressing Jurkat cells
T2 sequence: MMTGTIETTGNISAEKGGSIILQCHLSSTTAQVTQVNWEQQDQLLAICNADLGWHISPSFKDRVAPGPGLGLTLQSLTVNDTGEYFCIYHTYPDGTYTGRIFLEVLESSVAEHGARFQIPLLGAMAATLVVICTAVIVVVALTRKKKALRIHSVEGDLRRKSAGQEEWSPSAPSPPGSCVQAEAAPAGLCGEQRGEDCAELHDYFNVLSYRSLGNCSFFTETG
Briefly: flow cytometry on human primary CD8+ T cells.

The target of experiment [3] is T3, cynomolgus monkey TIGIT on the cell surface (cynomolgus monkey).
T3 construct: Expressed on engineered Jurkat cells or naturally on cynomolgus monkey primary CD8+ T cells (the cells are named under assay); also called Cynomolgus Monkey TIGIT Jurkat; Cynomolgus Monkey CD8
Briefly: flow cytometry on cynomolgus monkey primary CD8+ T cells.

Experiment [4] addresses T4, recombinant monomeric cynomolgus monkey TIGIT-His (cynomolgus monkey).
T4 construct: also called Cyno TIGIT His; cTIGIT; not shown: His tag
Briefly: BLI (Octet QKe), SEC1 on AMC sensor, cynomolgus monkey TIGIT-His in solution. (In general: BLI is a label-free optical method that tracks binding on a fibre tip over time.)

In experiment [5] the target is T5, recombinant monomeric mouse TIGIT-His (SEQ ID NO: 3) (mouse, UniProt P86176 29-148).
T5 construct: also called mTIGIT; not shown: His tag
T5 sequence: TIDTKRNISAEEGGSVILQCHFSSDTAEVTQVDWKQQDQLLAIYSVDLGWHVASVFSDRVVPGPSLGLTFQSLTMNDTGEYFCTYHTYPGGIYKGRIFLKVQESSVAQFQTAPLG
As to the kind of experiment: BLI (Octet QKe), SEC1 on AMC sensor, mouse TIGIT-His 33 to 1.22 nM, 1:1 global fit.

The target of experiment [6] is T6, recombinant monomeric human TIGIT-His (human, UniProt Q495A1 22-141).
T6 construct: also called hTIGIT; not shown: His tag
T6 sequence: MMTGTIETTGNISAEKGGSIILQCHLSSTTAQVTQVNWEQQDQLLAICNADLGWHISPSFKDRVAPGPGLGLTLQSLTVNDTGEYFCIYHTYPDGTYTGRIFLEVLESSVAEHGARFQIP
As to the kind of experiment: BLI (Octet QKe), SEC1 on AMC sensor, human TIGIT-His 33.8 to 1.25 nM, 1:1 global fit.

T3 sequence (chain, as listed by the source limits assumed): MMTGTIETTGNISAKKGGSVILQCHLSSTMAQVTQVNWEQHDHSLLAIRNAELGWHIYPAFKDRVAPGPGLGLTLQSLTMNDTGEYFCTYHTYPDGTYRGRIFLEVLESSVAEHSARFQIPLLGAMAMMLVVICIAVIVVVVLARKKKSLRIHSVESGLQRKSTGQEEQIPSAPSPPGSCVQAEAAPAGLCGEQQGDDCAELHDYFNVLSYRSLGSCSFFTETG
T4 sequence (chain, as listed by the source limits assumed): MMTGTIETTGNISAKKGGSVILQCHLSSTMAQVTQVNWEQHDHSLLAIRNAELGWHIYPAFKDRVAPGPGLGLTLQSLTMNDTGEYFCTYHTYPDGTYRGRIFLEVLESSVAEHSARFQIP

B1: SEC1 human IgG4 S228P (antibody)
heavy: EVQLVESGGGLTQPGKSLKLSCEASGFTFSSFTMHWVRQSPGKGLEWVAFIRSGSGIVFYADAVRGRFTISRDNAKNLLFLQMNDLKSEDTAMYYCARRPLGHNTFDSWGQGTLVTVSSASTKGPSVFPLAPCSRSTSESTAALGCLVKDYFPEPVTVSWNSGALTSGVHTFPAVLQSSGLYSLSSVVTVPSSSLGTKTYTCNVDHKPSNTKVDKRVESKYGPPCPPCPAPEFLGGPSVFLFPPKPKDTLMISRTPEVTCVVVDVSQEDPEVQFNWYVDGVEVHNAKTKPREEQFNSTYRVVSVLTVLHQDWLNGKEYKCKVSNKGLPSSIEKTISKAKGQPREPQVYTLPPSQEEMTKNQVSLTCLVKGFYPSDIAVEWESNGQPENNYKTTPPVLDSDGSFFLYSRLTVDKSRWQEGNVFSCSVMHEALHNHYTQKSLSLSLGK
light: DIVMTQSPSSLAVSPGEKVTMTCKSSQSLYYSGVKENLLAWYQQKPGQSPKLLIYYASIRFTGVPDRFTGSGSGTDYTLTITSVQAEDMGQYFCQQGINNPLTFGDGTKLEIKRTVAAPSVFIFPPSDEQLKSGTASVVCLLNNFYPREAKVQWKVDNALQSGNSQESVTEQDSKDSTYSLSSTLTLSKADYEKHKVYACEVTHQGLSSPVTKSFNRGEC
notes: Chimeric: hamster variable regions, human IgG4 S228P and human kappa constant regions; also called SEC1 (IgG4 S228P)
As a reminder, the Kd is the free concentration of one partner at which half of the binding sites on the other are occupied at equilibrium, for simple one-to-one binding. For B1, the values for the Kd in experiment [1] and in experiment [2] were 0.41 nM and 3.6 nM, respectively. For the same molecule, the binding result in experiment [3] was “no binding”.

B2: SEC1 mouse IgG2a N297A (antibody)
heavy: EVQLVESGGGLTQPGKSLKLSCEASGFTFSSFTMHWVRQSPGKGLEWVAFIRSGSGIVFYADAVRGRFTISRDNAKNLLFLQMNDLKSEDTAMYYCARRPLGHNTFDSWGQGTLVTVSSAKTTAPSVYPLAPVCGDTTGSSVTLGCLVKGYFPEPVTLTWNSGSLSSGVHTFPAVLQSDLYTLSSSVTVTSSTWPSQSITCNVAHPASSTKVDKKIEPRGPTIKPCPPCKCPAPNLLGGPSVFIFPPKIKDVLMISLSPIVTCVVVDVSEDDPDVQISWFVNNVEVHTAQTQTHREDYASTLRVVSALPIQHQDWMSGKEFKCKVNNKDLPAPIERTISKPKGSVRAPQVYVLPPPEEEMTKKQVTLTCMVTDFMPEDIYVEWTNNGKTELNYKNTEPVLDSDGSYFMYSKLRVEKKNWVERNSYSCSVVHEGLHNHHTTKSFSRTPGK
light: DIVMTQSPSSLAVSPGEKVTMTCKSSQSLYYSGVKENLLAWYQQKPGQSPKLLIYYASIRFTGVPDRFTGSGSGTDYTLTITSVQAEDMGQYFCQQGINNPLTFGDGTKLEIKRADAAPTVSIFPPSSEQLTSGGASVVCFLNNFYPKDINVKWKIDGSERQNGVLNSWTDQDSKDSTYSMSSTLTLTKDEYERHNSYTCEATHKTSTSPIVKSFNRNEC
notes: also called SEC1 IgG2a N297A
Broadly, the koff is a measure of how fast the partners let go of each other. As usually defined, the kon is the second-order rate constant of association. For B2, the binding result in experiment [4] is given as “no binding (tested: 302.8 to 0.42 nM)”. Moreover, in experiment [5], the Kd is 0.32 nM, the off-rate (koff) is 0.0006 s⁻¹ and the kon amounted to 1.9e+06 M⁻¹ s⁻¹. Besides, in experiment [6], the dissociation constant (Kd) was found to be 4.7 nM, the koff was 0.0079 s⁻¹ and the kon amounted to 1.7e+06 M⁻¹ s⁻¹.

(Values after US20170340735A1 (published 2017).)
